Changes are numbered by the printed parent chain. Numbers in names are those of the source.
Assays:
[1] = target: T1, cynomolgus monkey FcγRIIIaS extracellular domain with C-terminal His-tag (cynomolgus monkey, UniProt Q8SPW2 21-206 at identity 1.00)); assay: SPR, antibody captured, FcγR analyte
T1 construct: also called cyno FcgRIIIaS; cynoFcγRIIIaS
T1 chain: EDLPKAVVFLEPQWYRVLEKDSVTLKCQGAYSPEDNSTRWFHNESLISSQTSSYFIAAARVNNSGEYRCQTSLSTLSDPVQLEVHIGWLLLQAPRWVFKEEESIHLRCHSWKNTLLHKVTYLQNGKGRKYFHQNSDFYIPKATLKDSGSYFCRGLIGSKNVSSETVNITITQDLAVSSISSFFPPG
Protocol: (§1) The kinetic analysis of interactions between these antibodies and FcγR was carried out using BIACORE® T200 or BIACORE® 4000 (GE Healthcare). HBS-EP+ (GE Healthcare) was used as the running buffer, and the measurement temperature was set to 25° C. […] After the measurement, the antibody captured on the chip was washed off by allowing reaction with 10 mM glycine-HCl, pH1.5 and 25 mM NaOH so that the chip was regenerated and used repeatedly. The sensorgrams obtained as measurement results were analyzed by the 1:1 Langmuir binding model using the BIACORE® Evaluation Software to calculate the binding rate constant ka (L/mol/s) and dissociation rate constant kd (1/s), and the dissociation constant KD (mol/L) was calculated from these values. […] Regarding such interactions, KD values were calculated using the following 1:1 binding model described in BIACORE® T100 Software Handbook BR1006-48 Edition AE.

[2] = target: T1, cynomolgus monkey FcγRIIIaS …; assay: SPR, KD(parent SG1)/KD(variant)
[3] = target: T2, human FcγRIIaR extracellular domain with C-terminal His-tag (human, UniProt P12318 34-217); assay: SPR, KD(parent SG1)/KD(variant)
T2 construct: also called human FcgRIIaR; FcγRIIa (type R)
T2 chain: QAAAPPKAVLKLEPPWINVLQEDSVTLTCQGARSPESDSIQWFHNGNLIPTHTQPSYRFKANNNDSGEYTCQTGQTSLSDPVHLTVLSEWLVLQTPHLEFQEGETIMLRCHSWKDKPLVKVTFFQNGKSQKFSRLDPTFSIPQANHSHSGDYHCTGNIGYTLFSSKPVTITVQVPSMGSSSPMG

[4] = target: T3, human FcγRIIb extracellular domain with C-terminal His-tag (human, UniProt P31994 43-217); assay: SPR, KD(parent SG1)/KD(variant)
T3 construct: also called human FcgRIIb
T3 sequence: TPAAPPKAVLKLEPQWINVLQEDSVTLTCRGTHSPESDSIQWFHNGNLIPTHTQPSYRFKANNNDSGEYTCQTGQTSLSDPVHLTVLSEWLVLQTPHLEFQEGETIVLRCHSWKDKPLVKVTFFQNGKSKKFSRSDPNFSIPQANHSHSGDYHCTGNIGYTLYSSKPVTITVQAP

[5] = target: T4, human FcγRIIaH extracellular domain with C-terminal His-tag (human, UniProt P12318 34-217); assay: SPR, KD(parent SG1)/KD(variant)
T4 construct: also called human FcgRIIaH; FcγRIIa (type H)
T4 sequence: T2 chain with R134H

[6] = target: T5, human FcγRIIb extracellular domain, His-tagged (human, UniProt P31994 43-217); assay: SPR Biacore, KD(SG1)/KD(variant)
T5 construct: also called FcgRIIb (human); not shown: C-terminal His-tag
T5 sequence: T3 sequence
Protocol: as §1

[7] = target: T6, human FcγRIIaR extracellular domain, His-tagged (human, UniProt P12318 34-217); assay: SPR Biacore, KD(SG1)/KD(variant)
T6 construct: also called human FcγRIIa (type R); FcgRIIaR; not shown: C-terminal His-tag
T6 chain: T2 chain
Protocol: as §1

[8] = target: T7, cynomolgus monkey FcγRIIIaS extracellular domain, His-tagged (cynomolgus monkey, UniProt A3RFZ7 21-206 (rhesus entry)); assay: SPR (BIACORE), antibody captured on chip, FcγR as analyte, 25 C; KD of M103205H795-SG1 divided by KD of the variant
T7 construct: also called cyno FcγRIIIaS; cynoFcγRIIIaS; not shown: His-tag added to the C-terminus
Protocol: as §1

[9] = target: T8, cynomolgus monkey FcγRIIa2 extracellular domain with C-terminal His-tag (cynomolgus monkey); assay: SPR (Biacore), antibody captured, FcgR as analyte
T8 construct: also called cyno FcgRIIa2; cynoFcγRIIa2
T8 chain: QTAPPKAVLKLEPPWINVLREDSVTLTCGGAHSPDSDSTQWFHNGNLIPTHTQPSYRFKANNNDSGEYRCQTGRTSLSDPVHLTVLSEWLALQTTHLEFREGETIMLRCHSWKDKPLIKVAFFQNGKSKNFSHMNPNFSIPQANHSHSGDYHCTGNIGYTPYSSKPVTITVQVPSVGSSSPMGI
Protocol: as §1

[10] = target: T9, human FcγRIIb extracellular domain with C-terminal His-tag (human, UniProt P31994 43-217); assay: SPR (Biacore), KD of SG1 divided by KD of variant
T9 construct: also called human FcgRIIb
T9 sequence: T3 sequence
Protocol: as §1

B1: MS1032LO06-MY101 (antibody, human IgG1, kappa)
heavy: QVTLKESGPVLVKPTETLTLTCTVSGIDLSHDDISWVRQAPGKGLEWVGIISYAGSTYYASWAKGRLTISKDTSKNQVVLTMTNMDPVDTATYYCARGVPAYSHGGDLWGQGTLVTVSSASTKGPSVFPLAPSSKSTSGGTAALGCLVKDYFPEPVTVSWNSGALTSGVHTFPAVLQSSGLYSLSSVVTVPSSSLGTQTYICNVNHKPSNTKVDKKVEPKSCDKTHTCPPCPAPELLNGPSVFLFPPKPKDTLMISRTPEVTCVVVDVSEEDPEVKFNWYVDGVEVHNAKTKPREEQYNSTYRVVSVLTVLHQDWLNGKEYKCKVSNKALPKPIEKTISKAKGQPREPQVYTLPPSREEMTKNQVSLTCLVKGFYPSDIAVEWESNGQPENNYKTTPMVLDSDGSFFLYSKLTVDKSRWQQGNVFSCSVMHEALHNHYTQKSLSLSP
light: DIVMTQSPATLSLSPGERATLSCTSSQSVYHANWLSWFQQKPGQPPKLLIYWASTLAYGVPSRFSGSGSGTDFTLTISSLQPEDAATYYCAGGYGGGRYAFGQGTKVEIKRTVAAPSVFIFPPSDEQLKSGTASVVCLLNNFYPREAKVQWKVDNALQSGNSQESVTEQDSKDSTYSLSSTLTLSKADYEKHKVYACEVTHQGLSSPVTKSFNRGEC
notes: also called M103205H795-MY101; copies: 2 + 2
**Q.** With B1 as the binder, how does the Kd [1] read?
**A.** The Kd was 3200 nM.

B2: MS1032LO06-SG1016 (antibody, human IgG1, kappa)
heavy: B1 heavy with Q313R, D401K, N436A
light: B1 light
notes: tied to rows r8/r26 by row order only; also called MS103205H795-SG1016; copies: 2 + 2
**Q.** B2 was tested. Which “KD fold (SG1 = 1)” value [2] did it give?
**A.** Its value is 0.17 fold.

**Q.** And the “KD fold (SG1 = 1)” value [3]?
**A.** The value was 1.2 fold.

**Q.** What about the “KD fold (SG1 = 1)” value [4] of the same binder?
**A.** The value was 0.7 fold.

**Q.** And the “KD fold (SG1 = 1)” value [5]?
**A.** Its value is 1.8 fold.

B3: MS1032LO06-SG1029 (antibody, human IgG1, kappa)
heavy: B1 heavy with E270D, Q297L, Q313R, M398P, D415K, N436A
light: B1 light
notes: tied to rows r9/r27 by row order only; also called MS103205H795-SG1029; copies: 2 + 2
**Q.** Which “KD fold (SG1 = 1)” value [2] does the source give for B3 here?
**A.** The value was 0.05 fold.

**Q.** What about the “KD fold (SG1 = 1)” value [3] of the same binder?
**A.** Its value is 0.6 fold.

**Q.** What about the “KD fold (SG1 = 1)” value [4] of the same binder?
**A.** Its value is 5.9 fold.

**Q.** And the “KD fold (SG1 = 1)” value [5]?
**A.** The value was 1.5 fold.

B4: MS1032LO06-SG1031 (antibody, human IgG1, kappa, name in EU numbering)
heavy: B1 heavy with E270D, Q313R, M398P, D415K, N436A
light: B1 light
notes: tied to rows r10/r28 by row order only; also called MS103205H795-SG1031; copies: 2 + 2
**Q.** Which results are given for B4?
**A.** KD fold (SG1 = 1) [2]: 0.05 fold; KD fold (SG1 = 1) [3]: 1.7 fold; KD fold (SG1 = 1) [4]: 3.2 fold

B5: M103205H795-MY012/M103202L889-SK1 (antibody, human IgG1, kappa, name in EU numbering)
heavy: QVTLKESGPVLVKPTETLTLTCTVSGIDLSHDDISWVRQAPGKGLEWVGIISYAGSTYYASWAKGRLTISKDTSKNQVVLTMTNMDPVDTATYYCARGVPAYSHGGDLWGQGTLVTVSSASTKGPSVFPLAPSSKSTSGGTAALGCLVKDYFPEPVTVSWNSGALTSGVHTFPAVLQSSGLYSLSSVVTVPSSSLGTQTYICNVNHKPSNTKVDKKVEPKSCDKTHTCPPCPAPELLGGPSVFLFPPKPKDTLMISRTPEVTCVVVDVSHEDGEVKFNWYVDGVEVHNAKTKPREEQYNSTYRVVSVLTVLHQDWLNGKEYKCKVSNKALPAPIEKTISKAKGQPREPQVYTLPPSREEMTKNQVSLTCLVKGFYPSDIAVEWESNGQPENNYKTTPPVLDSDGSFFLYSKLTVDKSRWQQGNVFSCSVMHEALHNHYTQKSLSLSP
light: B1 light
notes: Substitution introduced into M103205H795-SG1; EU numbering
**Q.** For B5, which “KD fold (SG1 = 1)” value [6] is on record?
**A.** Its value is 5.1 fold.

**Q.** What about the “KD fold (SG1 = 1)” value [7] of the same binder?
**A.** The value was 4 fold.

B6: M103205H795-MY065/M103202L889-SK1 (antibody, human IgG1, kappa, name in EU numbering)
heavy: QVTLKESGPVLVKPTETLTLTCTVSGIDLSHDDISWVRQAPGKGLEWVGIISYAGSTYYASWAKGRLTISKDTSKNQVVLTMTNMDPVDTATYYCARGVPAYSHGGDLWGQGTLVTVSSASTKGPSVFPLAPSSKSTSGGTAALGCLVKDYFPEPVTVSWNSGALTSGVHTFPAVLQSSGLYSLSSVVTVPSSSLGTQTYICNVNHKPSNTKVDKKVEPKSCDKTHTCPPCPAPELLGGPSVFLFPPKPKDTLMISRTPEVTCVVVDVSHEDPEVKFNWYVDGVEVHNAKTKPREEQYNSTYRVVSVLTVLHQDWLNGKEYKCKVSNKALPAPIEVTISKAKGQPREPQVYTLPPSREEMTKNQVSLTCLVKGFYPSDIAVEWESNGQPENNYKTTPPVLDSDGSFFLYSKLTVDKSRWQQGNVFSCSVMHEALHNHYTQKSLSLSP
light: B1 light
**Q.** Which “KD fold (SG1 = 1)” value [8] does the source give for B6 here?
**A.** Its value is 3.27 fold.

B7: M103205H795-MY015/M103202L889-SK1 (antibody, human IgG1, kappa, name in EU numbering)
heavy: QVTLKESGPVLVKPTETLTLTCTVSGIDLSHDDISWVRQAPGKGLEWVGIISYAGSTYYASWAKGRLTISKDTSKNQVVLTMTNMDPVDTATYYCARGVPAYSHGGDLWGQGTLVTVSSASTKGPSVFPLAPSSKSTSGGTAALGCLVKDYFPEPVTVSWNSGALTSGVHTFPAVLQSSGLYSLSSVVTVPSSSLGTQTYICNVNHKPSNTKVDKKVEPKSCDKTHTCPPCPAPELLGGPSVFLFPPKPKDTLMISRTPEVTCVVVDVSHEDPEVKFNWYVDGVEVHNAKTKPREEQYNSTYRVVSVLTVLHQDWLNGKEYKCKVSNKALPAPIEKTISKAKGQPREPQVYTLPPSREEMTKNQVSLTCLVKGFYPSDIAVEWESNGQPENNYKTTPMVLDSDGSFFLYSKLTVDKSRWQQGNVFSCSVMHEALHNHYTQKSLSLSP
light: B1 light
**Q.** How did the “KD fold (SG1 = 1)” value [8] turn out when B7 was run?
**A.** The value was 3.6 fold.

B8: M103205H795-MY066/M103202L889-SK1 (antibody, human IgG1, kappa, name in EU numbering)
heavy: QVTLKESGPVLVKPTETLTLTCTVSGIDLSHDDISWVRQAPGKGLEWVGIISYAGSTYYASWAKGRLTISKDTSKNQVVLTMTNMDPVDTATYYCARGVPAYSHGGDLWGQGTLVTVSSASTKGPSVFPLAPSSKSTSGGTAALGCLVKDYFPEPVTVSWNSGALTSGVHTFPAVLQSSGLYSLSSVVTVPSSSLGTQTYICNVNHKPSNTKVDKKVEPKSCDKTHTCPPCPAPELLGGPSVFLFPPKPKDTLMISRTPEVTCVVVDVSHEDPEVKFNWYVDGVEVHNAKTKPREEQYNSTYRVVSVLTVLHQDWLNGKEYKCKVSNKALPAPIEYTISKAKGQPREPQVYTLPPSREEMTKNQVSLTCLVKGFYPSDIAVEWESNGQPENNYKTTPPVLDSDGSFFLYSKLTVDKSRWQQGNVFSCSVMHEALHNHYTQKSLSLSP
light: B1 light
**Q.** How did the “KD fold (SG1 = 1)” value [8] turn out when B8 was run?
**A.** Its value is 2.25 fold.

B9: M103205H795-MY067/M103202L889-SK1 (antibody, human IgG1, kappa, name in EU numbering)
heavy: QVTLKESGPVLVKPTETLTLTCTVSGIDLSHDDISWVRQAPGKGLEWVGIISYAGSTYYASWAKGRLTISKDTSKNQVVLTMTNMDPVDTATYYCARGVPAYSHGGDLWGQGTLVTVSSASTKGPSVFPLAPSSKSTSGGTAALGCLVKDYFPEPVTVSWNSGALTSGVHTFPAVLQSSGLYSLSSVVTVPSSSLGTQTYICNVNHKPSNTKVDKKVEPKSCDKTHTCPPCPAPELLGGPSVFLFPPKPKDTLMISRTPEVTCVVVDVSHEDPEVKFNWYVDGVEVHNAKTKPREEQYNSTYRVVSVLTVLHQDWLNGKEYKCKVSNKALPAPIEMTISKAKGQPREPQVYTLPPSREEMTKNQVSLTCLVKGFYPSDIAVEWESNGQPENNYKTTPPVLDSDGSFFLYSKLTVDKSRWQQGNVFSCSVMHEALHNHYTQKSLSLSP
light: B1 light
**Q.** B9 was tested. Which “KD fold (SG1 = 1)” value [8] did it give?
**A.** The value was 3.6 fold.

B10: M103205H795-MY516 / M103202L889-SK1 (antibody)
heavy: B1 heavy with N238T, S241V, E270D, Q297L, S300L, M398P
light: B1 light
notes: 'Q235L' copied as printed, probably Q295L
**Q.** B10 was tested. Which Kd [9] did it give?
**A.** Its Kd is 1300 nM.

B11: M103205H795-MY524 / M103202L889-SK1 (antibody, human IgG1, kappa, name in EU numbering)
heavy: B1 heavy with A233G, N238T, E270D, Q297L, M398P
light: B1 light
**Q.** How did the “KD fold (SG1 = 1)” value [10] turn out when B11 was run?
**A.** Its value is 4.6 fold.

**Q.** What about the Kd [9] of the same binder?
**A.** The Kd was 1100 nM.

B12: MS1032LO19-SG1079 (antibody)
heavy: QVQLVESGGGLVQPGGSLRLSCAVSGIDLSHDDISWVRQAPGKGLEWVSIISYAGSTYYASWAKGRLTISKDTSKNQVVLTMTNMDPVDTATYYCARGVPAYSHGGDLWGQGTLVTVSSASTKGPSVFPLAPSSKSTSGGTAALGCLVKDYFPEPVTVSWNSGALTSGVHTFPAVLQSSGLYSLSSVVTVPSSSLGTQTYICNVNHKPSNTKVDKKVEPKSCDKTHTCPPCPAPELLNGPSVFLFPPKPKDTLMISRTPEVTCVVVDVSDEDPEVKFNWYVDGVEVHNAKTKPREELYNSTYRVVSVLTVLHRDWLNGKEYKCKVSNKALPKPIEKTISKAKGQPREPQVYTLPPSREEMTKNQVSLTCLVKGFYPSDIAVEWESNGQPENNYKTTPPVLDSDGSFFLYSKLTVKKSRWQQGNVFSCSVMHEALHAHYTRKELSLSP
light: B1 light with S25T, A32E
notes: tied to rows r17/r35 by row order only; also called MS103240H795-SG1079; copies: 2 + 2
**Q.** What does the source list for B12?
**A.** KD fold (SG1 = 1) [2]: 0.04 fold; KD fold (SG1 = 1) [3]: 0.1 fold

B13: MS1032LO19-SG1074 (antibody, name in EU numbering)
heavy: B12 heavy with K328T, P345R, K415D, M430L, Y438T
light: B1 light with S25T, A32E
notes: tied to rows r15/r33 by row order only; also called MS103240H795-SG1074
**Q.** How did the “KD fold (SG1 = 1)” value [2] turn out when B13 was run?
**A.** The value was 0.19 fold.

**Q.** And the “KD fold (SG1 = 1)” value [3]?
**A.** Its value is 1.1 fold.

**Q.** What about the “KD fold (SG1 = 1)” value [4] of the same binder?
**A.** The value was 10.7 fold.

**Q.** And the “KD fold (SG1 = 1)” value [5]?
**A.** The value was 1.2 fold.

From patent US20250076311A1 (Chugai, published 2025)
